# B1: c29D9H8 (mouse-human chimeric IL-13 antibody) (antibody, V domains shown)
# VH: QVQLQQSGAELVRPGASVTLSCKASGYTFTDYEMHWVKQTPVHGLEWIGGIDPETGGTASNQKFKGKAILTADKSSSTAYMELRSLTSEDSAVYYCTSGDYFGGGPFAYWGQGTLVTVSA
# VL: DIKMTQSPSSMYASLGERVTITCKASQDINSYLSWFQQKPGKSPKTLIYRANRLVDGVPSRFSGSGSGQDYSLTISSLDYEDMGIYYCLQYDEFPYTFGGGTKLEIK
# How the values were obtained:
# [1] = target: cynomolgus IL-13 (purchased from sino biological) (cynomolgus) (UniProt Q0PW92); assay: ELISA, cynomolgus IL-13; antibody at 0.53 nM
# cynomolgus IL-13 (purchased from sino biological) (cynomolgus), sequence (Q0PW92 entry or part of it): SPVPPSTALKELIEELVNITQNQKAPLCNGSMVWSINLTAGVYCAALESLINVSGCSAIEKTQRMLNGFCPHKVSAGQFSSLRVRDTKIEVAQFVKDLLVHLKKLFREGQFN
# [2] = target: cynomolgus IL-13 (purchased from sino biological) (cynomolgus) (UniProt Q0PW92); assay: ELISA, cynomolgus IL-13; antibody at 0.004 nM
# [3] = target: his-labeled human IL-13 (immunogen A) (human) (UniProt P35225); assay: SPR (Biacore), antibody captured by anti-human Fc, immunogen A as analyte
# [4] = target: his-labeled human IL-13 (immunogen A) (human) (UniProt P35225); assay: FACS blocking, biotin-IL-13 on IL-13Ra1/IL-4Ra HEK293 cells; antibody at 0.05 nM
# [5] = target: his-labeled human IL-13 (immunogen A) (human) (UniProt P35225); assay: FACS blocking, biotin-IL-13 on IL-13Ra1/IL-4Ra HEK293 cells; antibody at 0.01 nM
# [6] = target: his-labeled human IL-13 (immunogen A) (human) (UniProt P35225); assay: FACS blocking, biotin-IL-13 on IL-13Ra2 HEK293 cells; antibody at 166.67 nM
# [7] = target: his-labeled human IL-13 (immunogen A) (human) (UniProt P35225); assay: FACS blocking, biotin-IL-13 on IL-13Ra2 HEK293 cells; antibody at 0.05 nM
# [8] = target: his-labeled human IL-13 (immunogen A) (human) (UniProt P35225); assay: FACS blocking, biotin-IL-13 on IL-13Ra1/IL-4Ra HEK293 cells; antibody at 0.27 nM
# [9] = target: his-labeled human IL-13 (immunogen A) (human) (UniProt P35225); assay: FACS blocking, biotin-IL-13 on IL-13Ra2 HEK293 cells; antibody at 6.67 nM
# [10] = target: his-labeled human IL-13 (immunogen A) (human) (UniProt P35225); assay: FACS blocking, biotin-IL-13 on IL-13Ra1/IL-4Ra HEK293 cells; antibody at 0.002 nM
# [11] = target: his-labeled human IL-13 (immunogen A) (human) (UniProt P35225); assay: FACS blocking, biotin-IL-13 on IL-13Ra1/IL-4Ra HEK293 cells; antibody at 6.67 nM
# [12] = target: cynomolgus IL-13 (purchased from sino biological) (cynomolgus) (UniProt Q0PW92); assay: ELISA, cynomolgus IL-13; antibody at 2.67 nM
# [13] = target: his-labeled human IL-13 (immunogen A) (human) (UniProt P35225); assay: FACS blocking, biotin-IL-13 on IL-13Ra2 HEK293 cells; antibody at 0.002 nM
# [14] = target: his-labeled human IL-13 (immunogen A) (human) (UniProt P35225); assay: FACS blocking, biotin-IL-13 on IL-13Ra1/IL-4Ra HEK293 cells; antibody at 1.33 nM
# [15] = target: his-labeled human IL-13 (immunogen A) (human) (UniProt P35225); assay: FACS blocking, biotin-IL-13 on IL-13Ra2 HEK293 cells; antibody at 0.27 nM
# [16] = target: his-labeled human IL-13 (immunogen A) (human) (UniProt P35225); assay: FACS blocking, biotin-IL-13 on IL-13Ra2 HEK293 cells; antibody at 0.01 nM
# [17] = target: his-labeled human IL-13R130Q variant (human) (UniProt P35225); assay: ELISA, IL-13R130Q variant; antibody at 2.67 nM
# his-labeled human IL-13R130Q variant (human), sequence (P35225 other isoform, or with tags, fused parts or gaps mutant): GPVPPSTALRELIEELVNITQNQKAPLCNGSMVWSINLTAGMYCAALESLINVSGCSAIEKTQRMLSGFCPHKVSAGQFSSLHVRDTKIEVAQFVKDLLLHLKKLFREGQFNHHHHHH
# [18] = target: his-labeled human IL-13 (immunogen A) (human) (UniProt P35225); assay: cell-based or functional assay
# [19] = target: his-labeled human IL-13 (immunogen A) (human) (UniProt P35225); assay: FACS blocking, biotin-IL-13 on IL-13Ra2 HEK293 cells; antibody at 1.33 nM
# [20] = target: his-labeled human IL-13 (immunogen A) (human) (UniProt P35225); assay: FACS blocking, biotin-IL-13 on IL-13Ra1/IL-4Ra HEK293 cells; antibody at 166.67 nM
# [21] = target: his-labeled human IL-13 (immunogen A) (human) (UniProt P35225); assay: FACS blocking, biotin-IL-13 on IL-13Ra1/IL-4Ra HEK293 cells; antibody at 33.33 nM
# [22] = target: cynomolgus IL-13 (purchased from sino biological) (cynomolgus) (UniProt Q0PW92); assay: ELISA, cynomolgus IL-13; antibody at 0.021 nM
# [23] = target: his-labeled human IL-13 (immunogen A) (human) (UniProt P35225); assay: FACS blocking, biotin-IL-13 on IL-13Ra2 HEK293 cells; antibody at 33.33 nM
# [24] = target: his-labeled human IL-13R130Q variant (human) (UniProt P35225); assay: ELISA, IL-13R130Q variant; antibody at 0.53 nM
binder,measurement,setting,value
B1,OD450 nm,[1],2.68
same,OD450 nm,[2],0.17
same,Kd,[3],32.4 pM
same,koff,[3],0.000813 s⁻¹
same,kon,[3],2.51e+07 M⁻¹ s⁻¹
same,mean fluorescence intensity,[4],90.3
same,mean fluorescence intensity,[5],101
same,mean fluorescence intensity,[6],20.4
same,mean fluorescence intensity,[7],81.6
same,mean fluorescence intensity,[8],72.6
same,mean fluorescence intensity,[9],25
same,mean fluorescence intensity,[10],105
same,mean fluorescence intensity,[11],28.3
same,OD450 nm,[12],3.2
same,mean fluorescence intensity,[13],101
same,mean fluorescence intensity,[14],45.7
same,mean fluorescence intensity,[15],56.3
same,mean fluorescence intensity,[16],95.9
same,OD450 nm,[17],2.92
same,"Periostin (pg/mL), MRCS cells + IL-13 5 ng/mL; antibody at 0.0002 nM",[18],6190 pg/mL
same,"Periostin (pg/mL), MRCS cells + IL-13 5 ng/mL; antibody at 0.001 nM",[18],4630 pg/mL
same,"Periostin (pg/mL), MRCS cells + IL-13 5 ng/mL; antibody at 0.004 nM",[18],3480 pg/mL
same,"Periostin (pg/mL), MRCS cells + IL-13 5 ng/mL; antibody at 0.021 nM",[18],3570 pg/mL
same,"Periostin (pg/mL), MRCS cells + IL-13 5 ng/mL; antibody at 0.11 nM",[18],3220 pg/mL
same,"Periostin (pg/mL), MRCS cells + IL-13 5 ng/mL; antibody at 0.53 nM",[18],1450 pg/mL
same,"Periostin (pg/mL), MRCS cells + IL-13 5 ng/mL; antibody at 2.67 nM",[18],927 pg/mL
same,"Periostin (pg/mL), MRCS cells + IL-13 5 ng/mL; antibody at 13.3 nM",[18],1150 pg/mL
same,"TARC (pg/mL), A549 cells + IL-13 + TNFα; antibody at 0.001 nM",[18],3160 pg/mL
same,"TARC (pg/mL), A549 cells + IL-13 + TNFα; antibody at 0.004 nM",[18],2950 pg/mL
same,"TARC (pg/mL), A549 cells + IL-13 + TNFα; antibody at 0.021 nM",[18],2730 pg/mL
same,"TARC (pg/mL), A549 cells + IL-13 + TNFα; antibody at 0.11 nM",[18],1850 pg/mL
same,"TARC (pg/mL), A549 cells + IL-13 + TNFα; antibody at 0.53 nM",[18],655 pg/mL
same,"TARC (pg/mL), A549 cells + IL-13 + TNFα; antibody at 2.67 nM",[18],159 pg/mL
same,"TARC (pg/mL), A549 cells + IL-13 + TNFα; antibody at 13.3 nM",[18],50 pg/mL
same,"TARC (pg/mL), A549 cells + IL-13 + TNFα; antibody at 66.7 nM",[18],36 pg/mL
same,"VCAM-1 fluorescence intensity, HUVEC + IL-13 0.5 ng/mL + TNFα; antibody at 0.0002 nM",[18],364
same,"VCAM-1 fluorescence intensity, HUVEC + IL-13 0.5 ng/mL + TNFα; antibody at 0.001 nM",[18],373
same,"VCAM-1 fluorescence intensity, HUVEC + IL-13 0.5 ng/mL + TNFα; antibody at 0.004 nM",[18],393
same,"VCAM-1 fluorescence intensity, HUVEC + IL-13 0.5 ng/mL + TNFα; antibody at 0.021 nM",[18],409
same,"VCAM-1 fluorescence intensity, HUVEC + IL-13 0.5 ng/mL + TNFα; antibody at 0.11 nM",[18],251
same,"VCAM-1 fluorescence intensity, HUVEC + IL-13 0.5 ng/mL + TNFα; antibody at 0.53 nM",[18],265
same,"VCAM-1 fluorescence intensity, HUVEC + IL-13 0.5 ng/mL + TNFα; antibody at 2.67 nM",[18],246
same,"VCAM-1 fluorescence intensity, HUVEC + IL-13 0.5 ng/mL + TNFα; antibody at 13.3 nM",[18],186
same,mean fluorescence intensity,[19],34.6
same,mean fluorescence intensity,[20],20
same,mean fluorescence intensity,[21],20.2
same,OD450 nm,[22],0.408
same,mean fluorescence intensity,[23],22.8
same,OD450 nm,[24],2.46

# Source: US20190309059A1 (SHANGHAI PHARMAEXPLORER, published 2019)
